# Source: article PMC6937242, “Characterization and engineering of broadly reactive monoclonal antibody against hepatitis B virus X protein that blocks its interaction with DDB1” (Scientific Reports, 2019)
# Where no end group is shown, it is not given here.
# T1: biotinylated BPS HBx peptide a.a. 89–104 (Hepatitis B virus genotype B, isolate …, UniProt P20975, strain, also: biotinylated)
# T1 construct: HBx of hepatitis B virus genotype B isolate BPS, a.a; a.a; also called peptide harboring a.a; source: synthetic peptide (GL Biochem)
# T1 chain: LPKVLHKRTLGLSAMS
# Target: mouse monoclonal antibody against HBx (anti-HBx 2A7)
# Assay: Western blot with densitometry
# Details: HEK293T lysates; 2A7 signal adjusted against anti-FLAG signal, normalized against BPS HBx; parent: 100
row,Molecule,percent of parent
1,FLAG-tagged wild type BPS HBx L89A,151%
2,FLAG-tagged wild type BPS HBx H94A,0%
3,FLAG-tagged wild type BPS HBx V92A; L93A; H94A,0%
4,FLAG-tagged wild type BPS HBx L93A,25%
5,FLAG-tagged wild type BPS HBx 104-106 (3 Ala),187%
6,FLAG-tagged wild type BPS HBx H86A; R87A; N88A,334%
7,FLAG-tagged wild type BPS HBx K95A; R96A; T97A,0%
8,FLAG-tagged wild type BPS HBx V83A; N84A,349%
9,FLAG-tagged wild type BPS HBx K91A,36%
10,FLAG-tagged wild type BPS HBx R96A,81%
11,FLAG-tagged wild type BPS HBx 101-103 (3 Ala),296%
12,FLAG-tagged wild type BPS HBx 80-82 (3 Ala),450%
13,FLAG-tagged wild type BPS HBx L89A; P90A; K91A,36%
14,FLAG-tagged wild type BPS HBx V92A,2%
15,FLAG-tagged wild type BPS HBx K95A,0%
16,FLAG-tagged wild type BPS HBx L98A,90%
17,FLAG-tagged wild type BPS HBx P90A,7%
18,FLAG-tagged wild type BPS HBx 77-79 (3 Ala),97%
19,FLAG-tagged wild type BPS HBx T97A,99%
20,FLAG-tagged wild type BPS HBx 98-100 (3 Ala),140%

# Target: T1, biotinylated BPS HBx peptide a.a. 89–104
# Assay: ELISA; biotinylated 16-mer HBx peptides captured on streptavidin-coated plates; secreted Igκ-VHVL-Fc added; HRP anti-human Fc pAb; OD450
# Details: one partner purified
row,Molecule,binding result
1,"Igκ-VHVL(2A7)-Fc (scFv, V domains shown, as the VH of m1 (2A7 VH); linker, printed as (GlyGlyGlyGlySer)3; as the VL of m1 (2A7 VL1); also called Igκ-VHVL-Fc; 2A7-derived scFv; source: HEK293T, transfected; secreted into supernatant, or in cell lysate; not shown: Fc (human IgG1), C-terminal, kept) VH: QVTLKESGPGILQPSQTLSLTCSFSGFSLSTSGMGVVWIRQPSGKGLEWLAHIWWDDDKYYNTALKSGLTISKDTSKNQVFLKIASVDTADTATYYCARMPYYDYDGGVAYWGQGTLVTVSA VL: DIVMTQSPASLVVSLGQRATISCRASKSVSTSGYSYMYWYQQKPGQPPKLLIYLASNLESGVPARFSGSGSGTDFTLNIHPVEEEDAATYYCQHSRELPLTFGAGTKLELK",binds

# Target: T2, bacterially expressed BPS-encoded HBx protein (Hepatitis B virus genotype B, isolate …, UniProt P20975, strain)
# T2 construct: HBx (X protein) of hepatitis B virus genotype B isolate BPS; also called recombinant HBx protein; BPS HBx (ELISA); source: bacterially expressed, purified under denaturing conditions
# Assay: ELISA; recombinant BPS HBx coated at 100 ng/well in bicarbonate/carbonate buffer pH 9.6; purified antibody added, 37 °C for 1 h; HRP anti-mouse pAb; OD450
# Details: both partners purified
row,Molecule,binding result
1,"mouse monoclonal antibody against HBx (anti-HBx 2A7) (antibody, V domains shown, 2A7 VH; 2A7 CH, mapped to mouse IGHG1 (immunoglobulin heavy constant gamma 1); 2A7 VL1; 2A7 CK, κ-type light chain constant region; IgG1 subclass, κ light chain (VL1/CK and VH/CH confirmed by LC-MS/MS); also called anti-HBx mAb 2A7; 2A7 mAb; source: SP2/0 hybridoma cell line, purified; also recovered from lysed Huh-7 or HepG2 cells after delivery with TR16-Tat) VH: QVTLKESGPGILQPSQTLSLTCSFSGFSLSTSGMGVVWIRQPSGKGLEWLAHIWWDDDKYYNTALKSGLTISKDTSKNQVFLKIASVDTADTATYYCARMPYYDYDGGVAYWGQGTLVTVSA VL: DIVMTQSPASLVVSLGQRATISCRASKSVSTSGYSYMYWYQQKPGQPPKLLIYLASNLESGVPARFSGSGSGTDFTLNIHPVEEEDAATYYCQHSRELPLTFGAGTKLELK",binds

# Target: T1, biotinylated BPS HBx peptide a.a. 89–104
# Assay: ELISA; biotinylated 16-mer HBx peptides captured on streptavidin-coated plates at 500 ng/well in PBS; antibody added, 37 °C for 1 h; HRP anti-mouse pAb; OD450
# Details: both partners purified
row,Molecule,binding result
1,"mouse monoclonal antibody against HBx (anti-HBx 2A7) (antibody, V domains shown, 2A7 VH; 2A7 CH, mapped to mouse IGHG1 (immunoglobulin heavy constant gamma 1); 2A7 VL1; 2A7 CK, κ-type light chain constant region; IgG1 subclass, κ light chain (VL1/CK and VH/CH confirmed by LC-MS/MS); also called anti-HBx mAb 2A7; 2A7 mAb; source: SP2/0 hybridoma cell line, purified; also recovered from lysed Huh-7 or HepG2 cells after delivery with TR16-Tat) VH: QVTLKESGPGILQPSQTLSLTCSFSGFSLSTSGMGVVWIRQPSGKGLEWLAHIWWDDDKYYNTALKSGLTISKDTSKNQVFLKIASVDTADTATYYCARMPYYDYDGGVAYWGQGTLVTVSA VL: DIVMTQSPASLVVSLGQRATISCRASKSVSTSGYSYMYWYQQKPGQPPKLLIYLASNLESGVPARFSGSGSGTDFTLNIHPVEEEDAATYYCQHSRELPLTFGAGTKLELK",binds
2,"recombinant 2A7 antibody (antibody, V domains shown, as the VH of m1 (2A7 VH); mouse IgG2a heavy chain constant fragment; as the VL of m1 (2A7 VL1); mouse κ light chain constant fragment; source: Expi293F cells, co-transfected, purified from culture supernatant (Protein A)) VH: QVTLKESGPGILQPSQTLSLTCSFSGFSLSTSGMGVVWIRQPSGKGLEWLAHIWWDDDKYYNTALKSGLTISKDTSKNQVFLKIASVDTADTATYYCARMPYYDYDGGVAYWGQGTLVTVSA VL: DIVMTQSPASLVVSLGQRATISCRASKSVSTSGYSYMYWYQQKPGQPPKLLIYLASNLESGVPARFSGSGSGTDFTLNIHPVEEEDAATYYCQHSRELPLTFGAGTKLELK",binds

# Target: T3, FLAG-tagged wild type BPS HBx (Hepatitis B virus genotype B, isolate …, UniProt P20975, strain)
# T3 construct: HBx (X protein) of hepatitis B virus genotype B isolate BPS, 154 a.a; also called FLAG-HBx (wild type); wild-type HBx; source: HEK293T, transfected, in lysate or in fixed cells; HepG2, transfected, in lysate; not shown: FLAG, N-terminal, kept
# Assay: co-IP; HEK293T co-transfected with Igκ-VHVL-Fc and FLAG-tagged wild type or mutant BPS HBx; lysate; anti-FLAG as capture antibody; blots with anti-hFc and anti-FLAG
# Details: partners not purified
row,Molecule,binding result
1,"Igκ-VHVL(2A7)-Fc (scFv, V domains shown, as the VH of m1 (2A7 VH); linker, printed as (GlyGlyGlyGlySer)3; as the VL of m1 (2A7 VL1); also called Igκ-VHVL-Fc; 2A7-derived scFv; source: HEK293T, transfected; secreted into supernatant, or in cell lysate; not shown: Fc (human IgG1), C-terminal, kept) VH: QVTLKESGPGILQPSQTLSLTCSFSGFSLSTSGMGVVWIRQPSGKGLEWLAHIWWDDDKYYNTALKSGLTISKDTSKNQVFLKIASVDTADTATYYCARMPYYDYDGGVAYWGQGTLVTVSA VL: DIVMTQSPASLVVSLGQRATISCRASKSVSTSGYSYMYWYQQKPGQPPKLLIYLASNLESGVPARFSGSGSGTDFTLNIHPVEEEDAATYYCQHSRELPLTFGAGTKLELK",binds

# Target: T4, FLAG-tagged WT (genotype C isolate) HBx (Hepatitis B virus genotype C, isolate …, UniProt P0C686, strain)
# T4 construct: 'WT' is here the name of an isolate, not 'wild type'; also called WT HBx; source: HEK293T, transfected, in lysate or in fixed cells; not shown: FLAG, N-terminal, kept
# Assay: Western blot; lysates of HEK293T cells transfected with FLAG-tagged HBx variants, 48 hours, resolved and blotted; probed with 2A7; anti-FLAG as control; densitometry normalised to anti-FLAG and to BPS HBx
# Details: one partner purified
row,Molecule,binding result
1,"mouse monoclonal antibody against HBx (anti-HBx 2A7) (antibody, V domains shown, 2A7 VH; 2A7 CH, mapped to mouse IGHG1 (immunoglobulin heavy constant gamma 1); 2A7 VL1; 2A7 CK, κ-type light chain constant region; IgG1 subclass, κ light chain (VL1/CK and VH/CH confirmed by LC-MS/MS); also called anti-HBx mAb 2A7; 2A7 mAb; source: SP2/0 hybridoma cell line, purified; also recovered from lysed Huh-7 or HepG2 cells after delivery with TR16-Tat) VH: QVTLKESGPGILQPSQTLSLTCSFSGFSLSTSGMGVVWIRQPSGKGLEWLAHIWWDDDKYYNTALKSGLTISKDTSKNQVFLKIASVDTADTATYYCARMPYYDYDGGVAYWGQGTLVTVSA VL: DIVMTQSPASLVVSLGQRATISCRASKSVSTSGYSYMYWYQQKPGQPPKLLIYLASNLESGVPARFSGSGSGTDFTLNIHPVEEEDAATYYCQHSRELPLTFGAGTKLELK",binds
